From the PETadex activity labels (doi:10.1073/pnas.2006753117)
Positions count from the first letter of the chain named.

B1: unnamed (protein)
chain: MQTTVTTMLLASVALAACAGGGSTPLPLPQQQPPQQEPPPPPVPLASRAACEALKDGNGDMVWPNAATVVEVAAWRDAAPATASAAALPEHCEVSGAIAKRTGIDGYPYEIKFRLRMPAEWNGRFFMEGGSGTNGSLSAATGSIGGGQIASALSRNFATIATDGGHDNAVNDNPDALGTVAFGLDPQARLDMGYNSYDQVTQAGKAAVARFYGRAADKSYFIGCSEGGREGMMLSQRFPSHYDGIVAGAPGYQLPKAGISGAWTTQSLAPAAVGLDAQGVPLINKSFSDADLHLLSQAILGTCDALDGLADGIVDNYRACQAAFDPATAANPANGQALQCVGAKTADCLSPVQVTAIKRAMAGPVNSAGTPLYNRWAWDAGMSGLSGTTYNQGWRSWWLGSFNSSANNAQRVSGFSARSWLVDFATPPEPMPMTQVAARMMKFDFDIDPLKIWATSGQFTQSSMDWHGATSTDLAAFRDRGGKMILYHGMSDAAFSALDTADYYERLGAAMPGAAGFARLFLVPGMNHCSGGPGTDRFDMLTPLVAWVERGEAPDQISAWSGTPGYFGVAARTRPLCPYPQIARYKGSGDINTEANFACAAPP
B2: unnamed (protein)
chain: MNFPRASRLMQAAVLGGLMAVSAAATAQTNPYARGPNPTAASLEASAGPFTVRSFTVSRPSGYGAGTVYYPTNAGGTVGAIAIVPGYTARQSSIKWWGPRLASHGFVVITIDTNSTLDQPSSRSSQQMAALRQVASLNGTSSSPIYGKVDTARMGVMGCSMGGGGSLISAANNPSLKAAAPQAPWDSSTNFSSVTVPTLIFACENDSIAPVNSSALPIYDSMSRNAKQFLEINGGSHCCANSGNSNQALIGKKGVAWMKRFMDNDTRYSTFACENPNSTRVSDFRTANCS
B3: unnamed (protein)
chain: B2 chain with C159W, C238S
B4: unnamed (protein)
chain: MKSSIPISVGMLATALISGCGSVPDNTSNEPTVPLASKELCEGIASGATKVNWPNQNTVVKASVWHAVTPATANAPELPEHCEVTGSINQRTGVDGYPYEIKMRLRMPADWNGRFFMEGGGGTNGSLSAALGSLGGGQTSNALSRRFATVSTDGGHDNAVNNNPAALGSVAFGMDPQARLDHGYNSYDQVTLAGKSAVSTFYGRGPDKSYFIGCSEGGREGMMFSQRFPAHYDGIVAGAPGYQLPKAGISGAWTTQSLAPAAVGVDPDGAPLVNKSFSDPDLYLLTQAILGSCDALDGLADGIVGNYSACQSLFDPSTALNPATGQPLRCTGAKTDDCLSPVQVDAIKRAMSGPVDTAGTALYNKWPWDTGMSGLNGTTYFQGWRSWWLGSYDSSTNNAQRVNGSSARSWLVDFATPPEPVPLNQVATRMMNFDFDVDPPKIFATSGLFTQPSMQWHGATSTDLNAFRSRGGKLMLYHGMADAAFSALDTIAYYERLSTAMPSVSDFSRLFLVPGMGHCSGGPGTDRFDMLTPLVAWVENGTAPARVEASSSTPGYFGVSARSRPLCPHPQIARYTGSGDINEATNFVCGNP

How the values were obtained:
[1] = substrate: MHET; assay: Proxy for plastic degradation [kcat] (s⁻¹); conditions: pH 7.5
[2] = substrate: PET; assay: Proxy for plastic degradation [Released monomer concentration (HPLC/LC-MS) (BHET+MHET+TPA)]; conditions: pH 7.5; part of the chain shown

Protein | Proxy for plastic degradation ([1]; part of the chain shown) | Proxy for plastic degradation [2] [mM] | Proxy for plastic degradation [1]
B1 | 27.6 | 0 | –
B2 | – | – | 0.03
B3 | 0 | – | –
B4 | – | – | 3.8
